Experimental findings from article PMC5607241, “Chimeric 14-3-3 proteins for unraveling interactions with intrinsically disordered partners” (Scientific Reports, 2017) are described below.

In general, stoichiometry N refers to a count of units in the complex or per binding partner.

The target in series [1] is T1, 14-3-3σ∆C mutant Clu3 (core of the chimeras) (human, UniProt P31947 1-231, 75EEK77 → 75AAA77).
T1 construct: three extra residues left at the N terminus after 3C cleavage of the hexahistidine tag; 14-3-3σ, human, C-terminally truncated (14-3-3σ∆C, residues 1-231), surface-entropy reduction mutant Clu3; Stood in the structures joined on one chain with the peptides (m1-m3); written as a molecule of its own for the pairs core/peptide; also called 14-3-3σ Clu3; 14-3-3σ∆C-Clu3; source: E. coli, as the …
T1 sequence: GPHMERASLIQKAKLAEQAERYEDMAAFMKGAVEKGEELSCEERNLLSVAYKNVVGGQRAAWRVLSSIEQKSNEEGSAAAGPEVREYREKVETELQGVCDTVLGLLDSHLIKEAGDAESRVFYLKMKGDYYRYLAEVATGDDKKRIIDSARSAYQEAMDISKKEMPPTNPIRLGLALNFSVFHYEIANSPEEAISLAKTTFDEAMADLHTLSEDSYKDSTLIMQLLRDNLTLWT
The series is described as follows: crystal structure; pCH3 (bi-directional peptide swap), 0.1 M bis-Tris-propane pH 6.5, 0.2 M (NH4)2SO4, 25% PEG 3350, 20 °C, 3.9 Å, PDB 5OMA. Particulars: both partners purified.

Series [2] deals with the molecule itself. The series is described as follows: crystal structure; pCH2 (mono-directional peptide swap), 0.1 M bis-Tris pH 6.5, 2 M (NH4)2SO4, 20 °C, 3.2 Å, PDB 5OM0.
Series [3] concerns the molecule itself. The experiment in a line: crystal structure; pCH3 (bi-directional peptide swap), 0.1 M bis-Tris-propane pH 6.5, 0.2 M (NH4)2SO4, 25% PEG 3350, 20 °C, 3.9 Å, PDB 5OMA.
Series [4] deals with the molecule itself. The experiment in a line: SEC; analytical SEC, calibrated Superdex 200 Increase 10/300, 20 mM Tris-HCl pH 7.6, 150 mM NaCl, 0.1 mM EDTA, 3 mM β-mercaptoethanol, 1.2 mL/min; samples pre-incubated 30 min at room temperature; hydrodynamic radii from column calibration.
In series [5] the target is T1, 14-3-3σ∆C mutant Clu3 (core of the …). The experiment in a line: crystal structure; pCH2 (mono-directional peptide swap), 0.1 M bis-Tris pH 6.5, 2 M (NH4)2SO4, 20 °C, 3.2 Å, PDB 5OM0. The following applies: both partners purified.

“And” between values parts separate entries of the source, which are not always exact repeats. Equal entries are not always repeated. Where no end group is shown, it is not given here. [ ]: non-standard residue; d: D form. pS = N[C@@H](COP(=O)(O)O)C(=O)O

B1: phosphorylated linker GSGpSLRR of pCH3 (peptide)
peptide: GSG[pS]LRR
notes: GSGS linker, the Leu kept from CH1 and the first two Arg of the StARD1 peptide; the stretch that was traced in the groove; also called cross-patching peptide of pCH3; source: E. coli, as part of the C-terminal tail of chimera pCH3, phosphorylated by co-expressed PKA
For B1, the binding result in series [1] was “binds”.

B2: 14-3-3σ Clu3 – Gli1 phosphopeptide chimera, phosphorylated (pCH2) (other)
chain: GPHMERASLIQKAKLAEQAERYEDMAAFMKGAVEKGEELSCEERNLLSVAYKNVVGGQRAAWRVLSSIEQKSNEEGSAAAGPEVREYREKVETELQGVCDTVLGLLDSHLIKEAGDAESRVFYLKMKGDYYRYLAEVATGDDKKRIIDSARSAYQEAMDISKKEMPPTNPIRLGLALNFSVFHYEIANSPEEAISLAKTTFDEAMADLHTLSEDSYKDSTLIMQLLRDNLTLWTGSGSLRRASDPAQA
modifications: phosphoserine at Ser640 of the Gli peptide
notes: three extra residues left at the N terminus after 3C cleavage of the hexahistidine tag; 14-3-3σ, human, C-terminally truncated (14-3-3σ∆C, residues 1-231), surface-entropy reduction mutant Clu3; Gli peptide RRAS640DPAQA, said to be conserved in Gli1, Gli2 and Gli3; the other grooves hold sulfate; also called 14-3-3σ fusion with Gli phosphopeptide; source: E. coli, co-expressed with His-tagged …
With B2, the binding result in series [2] is recorded as “binds”.

B3: 14-3-3σ Clu3 – StARD1 phosphopeptide chimera, phosphorylated (pCH3) (other)
chain: GPHMERASLIQKAKLAEQAERYEDMAAFMKGAVEKGEELSCEERNLLSVAYKNVVGGQRAAWRVLSSIEQKSNEEGSAAAGPEVREYREKVETELQGVCDTVLGLLDSHLIKEAGDAESRVFYLKMKGDYYRYLAEVATGDDKKRIIDSARSAYQEAMDISKKEMPPTNPIRLGLALNFSVFHYEIANSPEEAISLAKTTFDEAMADLHTLSEDSYKDSTLIMQLLRDNLTLWTGSGSLRRSSLLGSR
modifications: phosphoserine at the second Ser of the GSGS linker (-GSGpS-); phosphorylation status of the target and neighbouring serines (RRSSLLGSR) not known
notes: three extra residues left at the N terminus after 3C cleavage of the hexahistidine tag; 14-3-3σ, human, C-terminally truncated (14-3-3σ∆C, residues 1-231), surface-entropy reduction mutant Clu3; StARD1 peptide around Ser57 (RRSS57LLGS); also called 14-3-3σ fusion with StARD1/BimEL phosphopeptide; source: E. coli, co-expressed with His-tagged catalytic subunit of mouse PKA, purified (subtractive …)
Turning to B3, the binding result in series [3] is recorded as “binds”.

B4: 14-3-3σ Clu3 – HSPB6 phosphopeptide chimera, phosphorylated (pCH1) (other)
chain: GPHMERASLIQKAKLAEQAERYEDMAAFMKGAVEKGEELSCEERNLLSVAYKNVVGGQRAAWRVLSSIEQKSNEEGSAAAGPEVREYREKVETELQGVCDTVLGLLDSHLIKEAGDAESRVFYLKMKGDYYRYLAEVATGDDKKRIIDSARSAYQEAMDISKKEMPPTNPIRLGLALNFSVFHYEIANSPEEAISLAKTTFDEAMADLHTLSEDSYKDSTLIMQLLRDNLTLWTGSGSLRRASAPL
modifications: phosphoserine at Ser16 of the HSPB6 peptide (RRApS16APL)
notes: three extra residues left at the N terminus after 3C cleavage of the hexahistidine tag; 14-3-3σ, human, C-terminally truncated (14-3-3σ∆C, residues 1-231), surface-entropy reduction mutant Clu3; flexible linker; HSPB6 peptide RRAS16APL with the natural Leu that precedes it (the Leu is told in words; Dimer through the 14-3-3σ core; also called CH1 co-expressed with PKA; 14-3-3/HSPB6 chimera CH1; …)
As for B4, in series [4], the “stoichiometry N” value is 2 and 4.

B5: Gli phosphopeptide (RRApS640DPAQA), as fused in pCH2 (peptide)
peptide: RRA[pS]DPAQA
notes: Gli peptide RRAS640DPAQA, said to be conserved in Gli1, Gli2 and Gli3; Tethered through GSGSL to Thr231 of 14-3-3σ Clu3; also called Gli1 phosphopeptide; Gli-derived phosphopeptide; source: E. coli, as the C-terminal part of chimera pCH2, phosphorylated by co-expressed PKA
Consider B5, for which, in series [5], the binding result was “binds”.
